Where a chain is given by its changes, count along the chain named. Numbers in names are those of the source.
B1: CyPPO19 I408R + F360M: variant of CyPPO19 PPO protein (SEQ ID NO: 1) (protein)
chain: MSEVDVAIVGGGLSGLSLAWRLQQSAPQYSVVLLEASDRLGGNITTQTAEGFVWELGPNSFAPTPALLQLIAEVGLQSELIRGDRHLPRYIYWRGQLYPLQPTRPLALATSNLLSPWGKVRAALGALGFVPPYLGSGDESVNSFFRRHLGQEVAERLVAPFVSGVYAGDPQQLSAAAAFRRIAQLEKLGGGLIAGALHLRRQQAPKPKPPTSVQMRPGELGSFKEGLAALPRAIAQQLKAPIHLQTPVQEITPDPKGGYLLRSGEQTWRARSVVLATPAYQTAELVAPFQPAIARVLATIPYPTVACVVLAYPAGLGRSVRPGFGVLIPRSQGIRTLGTIWSSCLFPQRTPAGWQVFTSMIGGATDPDLASLSEEAIVQQVQQDLNRLLDLPAAKARLLGMKVWRRARPQYMVGYPEQWQQVTHALSQTPGLFLCSNYAEGVALGDRVEHGNRTAAAVAAYLSGGQP
modifications: Synthetic_PPO of Thermosynechococcus elongatus PKUAC-SCTE542 (comprising GenBank No. CP032152.1)
B2: CyPPO19 I408W + F360V: variant of CyPPO19 PPO protein (SEQ ID NO: 1) (protein)
chain: B1 chain with M360V, R408W
modifications: Synthetic_PPO of Thermosynechococcus elongatus PKUAC-SCTE542 (comprising GenBank No. CP032152.1)
B3: CyPPO19 R89A + A167I + F360V: variant of CyPPO19 PPO protein (SEQ ID NO: 1) (protein)
chain: B1 chain with R89A, A167I, M360V, R408I
modifications: Synthetic_PPO of Thermosynechococcus elongatus PKUAC-SCTE542 (comprising GenBank No. CP032152.1)
B4: CyPPO19 I408R + F360L: variant of CyPPO19 PPO protein (SEQ ID NO: 1) (protein)
chain: B1 chain with M360L
modifications: Synthetic_PPO of Thermosynechococcus elongatus PKUAC-SCTE542 (comprising GenBank No. CP032152.1)
B5: CyPPO19 R89A + A167C + F360L: variant of CyPPO19 PPO protein (SEQ ID NO: 1) (protein)
chain: B1 chain with R89A, A167C, M360L, R408I
modifications: Synthetic_PPO of Thermosynechococcus elongatus PKUAC-SCTE542 (comprising GenBank No. CP032152.1)
B6: CyPPO19 R89A + V165C + F360I: variant of CyPPO19 PPO protein (SEQ ID NO: 1) (protein)
chain: B1 chain with R89A, V165C, M360I, R408I
modifications: Synthetic_PPO of Thermosynechococcus elongatus PKUAC-SCTE542 (comprising GenBank No. CP032152.1)
B7: CyPPO19 R89A + V165C + F360V: variant of CyPPO19 PPO protein (SEQ ID NO: 1) (protein)
chain: B1 chain with R89A, V165C, M360V, R408I
modifications: Synthetic_PPO of Thermosynechococcus elongatus PKUAC-SCTE542 (comprising GenBank No. CP032152.1)
B8: CyPPO19 R89A + V165S + F360M: variant of CyPPO19 PPO protein (SEQ ID NO: 1) (protein)
chain: B1 chain with R89A, V165S, R408I
modifications: Synthetic_PPO of Thermosynechococcus elongatus PKUAC-SCTE542 (comprising GenBank No. CP032152.1)
B9: CyPPO19 I408W + F360T: variant of CyPPO19 PPO protein (SEQ ID NO: 1) (protein)
chain: B1 chain with M360T, R408W
modifications: Synthetic_PPO of Thermosynechococcus elongatus PKUAC-SCTE542 (comprising GenBank No. CP032152.1)

System: PPO-deficient BT3 E. coli (ΔPPO)
Assay: PPO-inhibiting herbicide tolerance test of PPO variants in E. coli (growth on herbicide-containing LB agar)
Assay type: cell-based
Settings: CyPPO19 variants in BT3 (ΔPPO) E. coli; LB agar with 0 to 2,000 μM herbicide, 37° C., dark, 16-20 hours
How it was run: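 Transformants were grown to OD600 0.5–1, adjusted to OD600=0.5 and spotted as 10-fold dilutions on LB agar with ampicillin (100 μg/mL) and 0 to 2,000 μM herbicide. Plates were kept at 37° C in the dark for 16-20 hours; growth was scored relative to wild type, one '+' per 10-fold resistance.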

| Molecule | tolerance level relative to wild type, Carfentrazone | tolerance level relative to wild type, Flumioxazin | tolerance level relative to wild type, Fomesafen | tolerance level relative to wild type, Oxyfluorfen | tolerance level relative to wild type, Saflufenacil | tolerance level relative to wild type, Sulfentrazone | tolerance level relative to wild type, Tiafenacil |
| --- | --- | --- | --- | --- | --- | --- | --- |
| B1 | + (‘+’ per each 10-fold resistance) | ++ (‘+’ per each 10-fold resistance) | + (‘+’ per each 10-fold resistance) | + (‘+’ per each 10-fold resistance) | ++ (‘+’ per each 10-fold resistance) | + (‘+’ per each 10-fold resistance) | +++ (‘+’ per each 10-fold resistance) |
| B2 | + (‘+’ per each 10-fold resistance) | ++++ (‘+’ per each 10-fold resistance) | +++ (‘+’ per each 10-fold resistance) | ++ (‘+’ per each 10-fold resistance) | +++ (‘+’ per each 10-fold resistance) | +++ (‘+’ per each 10-fold resistance) | ++++ (‘+’ per each 10-fold resistance) |
| B3 | + (‘+’ per each 10-fold resistance) | +++++ (until ‘+++++’ as maximal resistance) | +++ (‘+’ per each 10-fold resistance) | +++ (‘+’ per each 10-fold resistance) | +++++ (until ‘+++++’ as maximal resistance) | +++++ (until ‘+++++’ as maximal resistance) | +++++ (until ‘+++++’ as maximal resistance) |
| B4 | + (‘+’ per each 10-fold resistance) | + (‘+’ per each 10-fold resistance) | + (‘+’ per each 10-fold resistance) | + (‘+’ per each 10-fold resistance) | + (‘+’ per each 10-fold resistance) | + (‘+’ per each 10-fold resistance) | ++ (‘+’ per each 10-fold resistance) |
| B5 | ++ (‘+’ per each 10-fold resistance) | ++++ (‘+’ per each 10-fold resistance) | ++ (‘+’ per each 10-fold resistance) | +++ (‘+’ per each 10-fold resistance) | ++++ (‘+’ per each 10-fold resistance) | ++++ (‘+’ per each 10-fold resistance) | ++++ (‘+’ per each 10-fold resistance) |
| B6 | + (‘+’ per each 10-fold resistance) | ++++ (‘+’ per each 10-fold resistance) | ++ (‘+’ per each 10-fold resistance) | ++ (‘+’ per each 10-fold resistance) | ++++ (‘+’ per each 10-fold resistance) | +++ (‘+’ per each 10-fold resistance) | ++++ (‘+’ per each 10-fold resistance) |
| B7 | + (‘+’ per each 10-fold resistance) | ++++ (‘+’ per each 10-fold resistance) | + (‘+’ per each 10-fold resistance) | + (‘+’ per each 10-fold resistance) | ++++ (‘+’ per each 10-fold resistance) | +++ (‘+’ per each 10-fold resistance) | ++++ (‘+’ per each 10-fold resistance) |
| B8 | + (‘+’ per each 10-fold resistance) | ++++ (‘+’ per each 10-fold resistance) | +++ (‘+’ per each 10-fold resistance) | +++ (‘+’ per each 10-fold resistance) | ++++ (‘+’ per each 10-fold resistance) | +++ (‘+’ per each 10-fold resistance) | ++++ (‘+’ per each 10-fold resistance) |
| B9 | + (‘+’ per each 10-fold resistance) | + (‘+’ per each 10-fold resistance) | + (‘+’ per each 10-fold resistance) | + (‘+’ per each 10-fold resistance) | ++ (‘+’ per each 10-fold resistance) | + (‘+’ per each 10-fold resistance) | ++ (‘+’ per each 10-fold resistance) |
